# Experimental data from publication PMC4931921.
# T1: IFIT5 (Homo sapiens, UniProt Q13325 1-482)
# T1 sequence: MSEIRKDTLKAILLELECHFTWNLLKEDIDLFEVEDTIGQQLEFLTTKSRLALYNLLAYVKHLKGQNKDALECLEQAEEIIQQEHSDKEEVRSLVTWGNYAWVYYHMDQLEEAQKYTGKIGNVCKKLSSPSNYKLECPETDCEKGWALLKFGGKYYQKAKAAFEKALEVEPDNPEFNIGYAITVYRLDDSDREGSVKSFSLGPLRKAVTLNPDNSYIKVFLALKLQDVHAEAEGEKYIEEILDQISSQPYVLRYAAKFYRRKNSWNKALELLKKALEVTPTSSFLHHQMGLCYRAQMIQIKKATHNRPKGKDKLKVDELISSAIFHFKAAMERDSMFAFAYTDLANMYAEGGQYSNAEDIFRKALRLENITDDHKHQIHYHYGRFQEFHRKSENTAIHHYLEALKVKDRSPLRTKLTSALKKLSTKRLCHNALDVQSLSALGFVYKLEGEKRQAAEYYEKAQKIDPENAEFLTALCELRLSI
# T2: IFIT3 (Homo sapiens, UniProt O14879 1-490)
# T2 sequence: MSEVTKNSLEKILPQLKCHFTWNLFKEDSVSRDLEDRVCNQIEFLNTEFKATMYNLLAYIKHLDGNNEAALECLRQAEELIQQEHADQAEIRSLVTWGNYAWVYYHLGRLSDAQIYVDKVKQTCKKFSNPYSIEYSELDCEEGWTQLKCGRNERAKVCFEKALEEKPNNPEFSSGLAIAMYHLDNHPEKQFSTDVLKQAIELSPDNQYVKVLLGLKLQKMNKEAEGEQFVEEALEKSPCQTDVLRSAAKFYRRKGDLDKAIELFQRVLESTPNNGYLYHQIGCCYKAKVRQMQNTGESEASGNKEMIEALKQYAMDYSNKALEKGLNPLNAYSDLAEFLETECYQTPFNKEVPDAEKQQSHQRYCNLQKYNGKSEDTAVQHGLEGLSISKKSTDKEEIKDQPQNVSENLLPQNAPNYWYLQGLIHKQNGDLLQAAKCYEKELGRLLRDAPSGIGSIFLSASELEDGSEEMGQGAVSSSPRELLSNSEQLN
# T3: IFIT1 (Homo sapiens, UniProt P09914 1-478)
# T3 sequence: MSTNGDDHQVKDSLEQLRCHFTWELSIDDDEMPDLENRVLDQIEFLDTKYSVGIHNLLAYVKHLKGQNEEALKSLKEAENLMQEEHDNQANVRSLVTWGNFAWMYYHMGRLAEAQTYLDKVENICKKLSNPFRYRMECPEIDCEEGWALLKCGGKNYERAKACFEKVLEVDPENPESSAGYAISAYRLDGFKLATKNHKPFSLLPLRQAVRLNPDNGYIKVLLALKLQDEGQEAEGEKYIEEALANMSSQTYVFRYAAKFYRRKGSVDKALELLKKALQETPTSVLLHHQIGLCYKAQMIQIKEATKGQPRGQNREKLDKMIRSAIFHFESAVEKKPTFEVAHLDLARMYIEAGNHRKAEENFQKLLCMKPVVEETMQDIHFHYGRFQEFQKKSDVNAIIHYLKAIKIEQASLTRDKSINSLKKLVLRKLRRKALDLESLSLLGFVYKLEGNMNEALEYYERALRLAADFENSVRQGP
# Experiments:
# IFIT5 [1] = molecular target: T1, IFIT5; test: crystal structure 2.0 A
# IFIT5 [2] = molecular target: T1, IFIT5; test: EMSA
# IFIT3 = molecular target: T2, IFIT3; test: EMSA
# IFIT1 = molecular target: T3, IFIT1; test: EMSA
# IFIT5 [3] = molecular target: T1, IFIT5; test: crystal structure 2.5 A
# IFIT5 [4] = molecular target: T1, IFIT5; test: crystal structure 1.86 A
Binder,binding result (IFIT5 [2]),binding result (IFIT3),binding result (IFIT1),other results
"UUU (ssRNA, 5'-triphosphate) [PPP-oligo-U]",–,–,–,binding result (IFIT5 [1]): binds
"PPP-3nt (dsRNA, 5'-triphosphate on strand 1) RNA 1: GGGAGAGAGAGAGAGAGAGUAAGGGCGUCGUCGCCCCGAGAAUU RNA 2: ACUCUCUCUCUCUCUCU",binds,no binding,–,–
"PPP-5nt (dsRNA, 5'-triphosphate on strand 1) RNA 1: GGGAGAGAGAGAGAGAGAGUAAGGGCGUCGUCGCCCCGAGAAUU RNA 2: ACUCUCUCUCUCUCU",–,–,binds,–
"GGGAGAGAGAGAGAGAGAGUAAGGGCGUCGUCGCCCCGAGAAUU (ssRNA, 5'-triphosphate) [PPP-ss (44nt PPP-ssRNA)]",binds,no binding,binds,–
"AAAA (ssRNA, 5'-triphosphate) [PPP-oligo-A]",–,–,–,binding result (IFIT5 [3]): binds
"CCCC (ssRNA, 5'-triphosphate) [PPP-oligo-C]",–,–,–,binding result (IFIT5 [4]): binds
